Non-standard residues stand in square brackets, D forms with d. Primed or numbered codes have the meaning given here. *: point of attachment. X11 = 1‑((3-fluorophenyl)sulfonyl)piperidin‑4‑yl carbamate, O=C(OC1CCN(S(=O)(=O)c2cccc(F)c2)CC1)*; X8 = 1‑((4-chlorophenyl)sulfonyl)piperidin‑4‑yl carbamate, O=C(OC1CCN(S(=O)(=O)c2ccc(Cl)cc2)CC1)*; X13 = 1‑((2-fluorophenyl)sulfonyl)piperidin‑4‑yl carbamate, O=C(OC1CCN(S(=O)(=O)c2ccccc2F)CC1)*; X5 = 1‑acetyl‑4‑phenethylpiperidin‑4‑yl carbamate, CC(=O)N1CCC(CCc2ccccc2)(OC(=O)*)CC1; X4 = 1‑(phenylsulfonyl)piperidin‑4‑yl carbamate, O=C(OC1CCN(S(=O)(=O)c2ccccc2)CC1)*; X3 = 4‑benzylpiperidin‑4‑yl carbamate, O=C(OC1(Cc2ccccc2)CCNCC1)*; X1 = 4‑phenylpiperidin‑4‑yl carbamate, O=C(OC1(c2ccccc2)CCNCC1)*; X7 = 1‑acetylpiperidin‑4‑yl carbamate, CC(=O)N1CCC(OC(=O)*)CC1; kbt″ = ketobenzothiazole (C-terminal Arg), c1ccc2sc(*)nc2c1; kbt = C-terminal Arg ketobenzothiazole; Cha = N[C@@H](CC1CCCCC1)C(=O)O
Tests used:
Test in all cases: cell-based or functional assay
[1] = molecular target: T1, recombinant thrombin (#1473-SE-010, R&D Systems) (UniProt P00734 44-622)
[2] = molecular target: T2, activated hepsin (#4776-SE-010, R&D Systems) (UniProt P05981 45-417, limits assumed)
T2 sequence (P05981 45-417 limits assumed): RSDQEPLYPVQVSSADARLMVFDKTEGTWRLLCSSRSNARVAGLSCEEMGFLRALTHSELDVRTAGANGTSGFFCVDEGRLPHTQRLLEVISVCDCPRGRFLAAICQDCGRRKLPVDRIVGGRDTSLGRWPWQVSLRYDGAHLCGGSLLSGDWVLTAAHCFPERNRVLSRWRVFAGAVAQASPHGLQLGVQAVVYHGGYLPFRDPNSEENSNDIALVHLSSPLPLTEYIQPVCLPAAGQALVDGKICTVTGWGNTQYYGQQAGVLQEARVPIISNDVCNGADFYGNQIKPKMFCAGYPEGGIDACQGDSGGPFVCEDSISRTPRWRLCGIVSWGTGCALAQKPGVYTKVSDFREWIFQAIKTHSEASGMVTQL

[3] = molecular target: T3, matriptase (#3946-SE-010, R&D Systems) (UniProt Q9Y5Y6 615-855)
T3 sequence (looked up): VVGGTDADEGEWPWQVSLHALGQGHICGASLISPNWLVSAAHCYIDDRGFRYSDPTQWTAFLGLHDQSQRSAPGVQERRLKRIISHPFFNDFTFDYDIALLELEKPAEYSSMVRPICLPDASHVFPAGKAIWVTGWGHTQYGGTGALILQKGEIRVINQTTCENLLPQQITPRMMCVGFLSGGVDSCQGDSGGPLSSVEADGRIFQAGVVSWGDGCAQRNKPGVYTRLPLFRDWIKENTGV

[4] = molecular target: T4, recombinant N-terminal His-tag HGFA serine protease domain (UniProt Q04756 373-655)
T4 sequence (looked up): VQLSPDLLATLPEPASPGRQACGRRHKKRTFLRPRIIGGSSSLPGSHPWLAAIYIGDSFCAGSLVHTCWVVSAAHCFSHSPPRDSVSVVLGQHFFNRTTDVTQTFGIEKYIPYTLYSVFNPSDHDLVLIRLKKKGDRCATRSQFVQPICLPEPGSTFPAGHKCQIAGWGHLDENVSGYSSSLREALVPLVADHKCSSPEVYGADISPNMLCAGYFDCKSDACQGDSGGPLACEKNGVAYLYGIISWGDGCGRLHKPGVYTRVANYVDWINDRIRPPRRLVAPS

[5] = molecular target: T5, Factor Xa (#1063-SE-010, R&D Systems) (UniProt P00742 41-488, limits assumed)
T5 sequence (P00742 41-488 limits assumed): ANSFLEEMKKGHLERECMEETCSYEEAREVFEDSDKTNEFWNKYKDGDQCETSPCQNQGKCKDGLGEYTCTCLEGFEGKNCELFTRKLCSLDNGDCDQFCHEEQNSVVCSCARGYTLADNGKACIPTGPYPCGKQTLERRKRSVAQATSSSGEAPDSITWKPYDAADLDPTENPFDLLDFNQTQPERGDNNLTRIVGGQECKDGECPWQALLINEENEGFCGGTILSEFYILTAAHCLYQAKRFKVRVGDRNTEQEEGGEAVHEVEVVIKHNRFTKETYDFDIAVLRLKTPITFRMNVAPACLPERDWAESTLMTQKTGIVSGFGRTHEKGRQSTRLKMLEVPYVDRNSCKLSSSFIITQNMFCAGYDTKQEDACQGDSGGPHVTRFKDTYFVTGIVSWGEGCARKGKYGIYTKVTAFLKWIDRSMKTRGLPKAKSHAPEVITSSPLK

[6] = molecular target: T1, recombinant thrombin (#1473-SE-010, R&D …); remark: listed apart in the source
[7] = molecular target: T2, activated hepsin (#4776-SE-010, R&D …); remark: listed apart in the source
[8] = molecular target: T3, matriptase (#3946-SE-010, R&D Systems); remark: listed apart in the source
[9] = molecular target: T4, recombinant N-terminal His-tag HGFA …; remark: listed apart in the source
[10] = molecular target: T5, Factor Xa (#1063-SE-010, R&D Systems); remark: listed apart in the source

| Binder | Thrombin* (IC50 nM) [1] [nM] | Hepsin (IC50 nM) [2] [nM] | Matriptase (IC50 nM) [3] [nM] | HGFA (IC50 nM) [4] [nM] | Factor Xa* (IC50 nM) [5] [nM] | Thrombin IC50 [6] [nM] | Hepsin IC50 [7] [nM] | Matriptase IC50 [8] [nM] | HGFA IC50 [9] [nM] | Factor Xa IC50 [10] [nM] |
| --- | --- | --- | --- | --- | --- | --- | --- | --- | --- | --- |
| Ac-IQFR-kbt [MM3116 Ac-IQFR-kbt] | > 20 | 0.14 | 0.923 | 30.2 | 792 | – | – | – | – | – |
| Ac-GQFR-kbt [MM3122 Ac-GQFR-kbt] | > 20 | 0.194 | 0.314 | 32.5 | 700 | – | – | – | – | – |
| Ac-PQFR-kbt [MM3123 Ac-PQFR-kbt] | > 20 | 0.136 | 0.316 | 75 | 199 | – | – | – | – | – |
| Ac-MQFR-kbt [MM3130 Ac-MQFR-kbt] | > 20 | 0.135 | 0.552 | 36.5 | 342 | – | – | – | – | – |
| Ac-LQFR-kbt [MM3131 Ac-LQFR-kbt] | > 20 | 0.247 | 1.8 | 98.2 | 219 | – | – | – | – | – |
| Ac-Gln-Phe-Arg-kbt [MM3144 Ac-QFR-kbt] | > 20 | – | – | 13.8 | 1.4 | – | – | – | – | – |
| X1-Leu-Arg-kbt | – | – | – | – | – | > 20000 | 5 | 90 | 780 | – |
| X3-Leu-Arg-kbt [4-benzylpiperidin-4-yl Leu-Arg-kbt carbamate (8b)] | – | – | – | – | – | > 20000 | 0.6 | 30 | 1200 | 6500 |
| X5-Leu-Arg-kbt [1-acetyl-4-phenethylpiperidin-4-yl Leu-Arg-kbt carbamate (8c)] | – | – | – | – | – | 7700 | 0.5 | 70 | > 20000 | 2000 |
| X1-[Cha]-Arg-{kbt″} [4-phenylpiperidin-4-yl Cha-Arg-kbt carbamate (8d)] | – | – | – | – | – | > 20000 | 90 | 2100 | > 20000 | 9000 |
| X7-Leu-Arg-kbt [1-acetylpiperidin-4-yl Leu-Arg-kbt carbamate (8e)] | – | – | – | – | – | – | 20 | 640 | > 20000 | – |
| X4-Leu-Arg-kbt [1-(phenylsulfonyl)piperidin-4-yl Leu-Arg-kbt carbamate (8f)] | – | – | – | – | – | > 20000 | 20 | 810 | 8600 | > 20000 |
| X13-Leu-Arg-kbt [1-((2-fluorophenyl)sulfonyl)piperidin-4-yl Leu-Arg-kbt carbamate (8g)] | – | – | – | – | – | – | 70 | 4500 | 18000 | – |
| X8-Leu-Arg-kbt [1-((4-chlorophenyl)sulfonyl)piperidin-4-yl Leu-Arg-kbt carbamate (8i)] | – | – | – | – | – | – | 60 | 2400 | 9000 | – |
| X11-Leu-Arg-kbt [1-((3-fluorophenyl)sulfonyl)piperidin-4-yl Leu-Arg-kbt carbamate (8j)] | – | – | – | – | – | – | 70 | 7500 | > 20000 | – |

Source: patent US20220380407A1 (WASHINGTON UNIVERSITY, published 2022)
